Assay results as given in the RNAGym collection of RNA variant scans (doi:10.1073/pnas.2313332121).

B1: TPR t1 (parent)
chain: GACCAAUCUGCCCUCAGAGCUCGAGAACAUCUUCGGAUGCAGAGGAGGCAGGCUUCGGUGGCGCGAUAGCGCCAACGUCCUCAACCUCCAAUGCAUCCCACCACAUGAUGAUGCCUGAAGAGCCUUGGUUUUUUG

Variants of: B1
Experiment: polymerase ribozyme fitness, log enrichment relative to wild type (log ratio); higher = more active; in vitro selection for triplet polymerase activity
Outline: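 After PCR construction and transcription, each subunit's mutant library from a heterodimeric triplet polymerase ribozyme was annealed with a biotinylated primer, the partner subunit and triplets. Incubation was frozen, at −7 °C, and extended constructs were gel-excised, bound to streptavidin beads and amplified by RT-PCR, in one selection round done in triplicate. Fitness is the logarithm of a genotype's enrichment divided by that of the wild type, from inverse-variance-weighted replicate averages of Illumina-sequenced inputs and outputs. The base of the logarithm is 2, and genotypes needed ≥10 input reads and ≥1 read per output.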

| Variant | polymerase ribozyme fitness (log ratio) |
| --- | --- |
| G39A G60A C86U U116A | -3.99 |
| G39A A68G C115G U130A | -6.03 |
| C40U G44A U125A | -1.32 |
| U38G A41U | -2.98 |
| C40A G71C C101A U131C | -3.67 |
| G39U G61A C72G A103U | -5.55 |
| C40A G57U G122U | -2.54 |
| U38G G47U | -3.26 |
| G39C U55A C56A U112C | -0.17 |
| G39U C115U U131A | -2.02 |
| C40G C124A | 1.16 |
| G39C G47C | -3.08 |
| C40G U132A | -0.821 |
| U38A G61A | -1.68 |
| C40G A50U | -0.606 |
| C40G G69A A84C | -3.83 |
| G39U G58A A121U | 1.6 |
| G39A G69A A121U G128U | -3.24 |
| G39U G65A | -6.81 |
| C40G G69U U92A G93A C94G A119G | -0.914 |
| C40G C86U A100U | -3.33 |

| Variant | polymerase ribozyme fitness (log ratio) |
| --- | --- |
| C40U A68U A74U C97U C102A A111G | -7.15 |
| C40U C104A | -2.08 |
| C40U C104U | -0.655 |
| G39A C56A | -0.909 |
| G39A C40A | -3.25 |
| C40G C70G | -4.89 |
| G39U U55A G71A C94G C102A G113U | -5.82 |
| G39U C49A G71U G127A | -2.56 |
| U38G C40U | -1.03 |
| C40A U129G U131A G135C | -4.21 |
| C40U U54A | -0.773 |
| C40U U59A U116A | -4.02 |
| G39U C85G | -2.87 |
| G39U C85U | -0.997 |
| C40U C64U C82G | -1.35 |
| C40G G44U G63C C85U | -5.9 |
| C40G C72U | -1.47 |
| C40G C56U A91C | -2.49 |
| C40A C86U G110U U112C | -3.84 |
| G39U A103C C114U A119U G120A U130A | -4.34 |
| U38C A46U A100C | -4.28 |

| Variant | polymerase ribozyme fitness (log ratio) |
| --- | --- |
| G39A C62A C89G C101U | -5.16 |
| U38A G39A G61U | -1.2 |
| C40A C72A | -0.912 |
| C40A U131A | -1.11 |
| U38A G71U C80U A95G C124A | -0.159 |
| U38A G120U | 0.263 |
| G39A U96C | -0.886 |
| C40G A41U C70U C124G | -3.14 |
| C40U A105C | -3.68 |
| U38G G42U G61U C73U C115U | -3.73 |
| G39U G45U C72A | -2.22 |
| G39U G60A | 0.0157 |
| G39U G60U | -0.635 |
| U38C G63C C102U | -3.7 |
| G39C C62A | -0.902 |
| C40U A43U G57U G63C | -3.07 |
| C40U G71A U78G C123G U125C | -1.36 |
| G39C U78A C94A C123A C124A G128A | -0.0279 |
| G39U G52A U55C C56A C80U | -1.08 |
| C40G U59A C86U A100U | -4.58 |
| C40A G45U | -2.77 |

| Variant | polymerase ribozyme fitness (log ratio) |
| --- | --- |
| G39U G113C | -2.84 |
| G39U G113U | -3.59 |
| C40G G44C A74U U78G | -2.88 |
| C40A C53A G57U | -0.732 |
| C40U C115A G128A | -2.68 |
| C40U C80U C99U C124U | -2.92 |
| G39U C123G U126C | -0.255 |
| G39A G71A C86A A100C | -4 |
| G39U U54A | -1.76 |
| C40U G60U G110A | -1.76 |
| C40U A50G | -0.548 |
| C40U A50U | -4.47 |
| G39A A50C C73A C79A C82G | -0.859 |
| C40G C94A | -2.65 |
| G39U C76U C79G | -1.98 |
| C40A A50U C88U U96C G120U | -4.53 |
| U38G C89U | -0.78 |
| C40A A111C | -1.49 |
| C40A C73U | -1.17 |
| G39A A84C U106A | -0.784 |
| G39U C49G A118U | -0.724 |
